Data on 44 variants can be found in the Human Domainome abundance scans (Beltran et al. 2025).

B1: RUN and FYVE domain-containing protein 1, residues 639 to 698; numbered along this chain, Q96T51 (parent)
chain: WLKDDEATHCRQCEKEFSISRRKHHCRNCGHIFCNTCSSNELALPSYPKPVRVCDSCHTL

± gives the uncertainty stated by the source.

The variants in this series derive from B1. The series can be described thus: abundance fitness (aPCA) (normalised: wild type 0, dead -1); higher = more abundant; growth selection in yeast, the domain comes from the species named. The settings on record: Homo sapiens.
Regarding WLKDDEATHCRQCEKEFSISRRKHHCRNCGHIFCNTCSSNELAHPSYPKPVRVCDSCHTL [L44H], the abundance fitness was -0.295 ± 0.067.

As for WLKDDEATHCRQCEKEFSISRRKHHCRNCGHIFCNTCSSNELAVPSYPKPVRVCDSCHTL [L44V], the abundance fitness was -0.236 ± 0.057.

With WLKDDEATHCRQCEKEFSISRRKHHCRNCGHIFCNTCSSNELACPSYPKPVRVCDSCHTL [L44C], the abundance fitness was -0.389 ± 0.099.

For the variant WLKDDEATHCRQCEKEFSISRRKHHCRNCGHIFCNTCSSNELAMPSYPKPVRVCDSCHTL [L44M], the abundance fitness was -0.077 ± 0.064.

In the case of WLKDDEATHCRQCEKEFSISRRKHHCRNCGHIFCNTCSSNELAPPSYPKPVRVCDSCHTL [L44P], the abundance fitness is -0.326 ± 0.08.

With WLKDDEATHCRQCEKEFSISRRKHHCRNCGHIFCNTCSSNELARPSYPKPVRVCDSCHTL [L44R], the abundance fitness was -0.445 ± 0.059.

Consider WLKDDEATHCRQCEKEFSISRRKHHCRNCGHIFCNTCSSNELAYPSYPKPVRVCDSCHTL [L44Y], for which the abundance fitness was -0.271 ± 0.062.

As to WLKDDEATHCRQCEKEFSISRRKHHCRNCGHIFCNTCSSNELAKPSYPKPVRVCDSCHTL [L44K], the abundance fitness was -0.384 ± 0.071.

For the variant WLKDDEATHCRQCEKEFSISRRKHHCRNCGHIFCNTCSSNELANPSYPKPVRVCDSCHTL [L44N], the abundance fitness is -0.388 ± 0.093.

On to WLKDDEATHCRQCEKEFSISRRKHHCRNCGHIFCNTCSSNELATPSYPKPVRVCDSCHTL [L44T], for which the abundance fitness was -0.127 ± 0.072.

Consider WLKDDEATHCRQCEKEFSISRRKHHCRNCGHIFCNTCSSNELAQPSYPKPVRVCDSCHTL [L44Q], for which the abundance fitness is -0.3 ± 0.049.

Turning to WLKDDEATHCRQCEKEFSISRRKHHCRNCGHIFCNTCSSNELAEPSYPKPVRVCDSCHTL [L44E], the abundance fitness is -0.376 ± 0.089.

In the case of WLKDDEATHCRQCEKEFSISRRKHHCRNCGHIFCNTCSSNELAGPSYPKPVRVCDSCHTL [L44G], the abundance fitness was -0.166 ± 0.053.

WLKDDEATHCRQCEKEFSISRRKHHCRNCGHIFCNTCSSNELAFPSYPKPVRVCDSCHTL [L44F]: the abundance fitness is -0.196 ± 0.051.

Consider WLKDDEATHCRQCEKEFSISRRKHHCRNCGHIFCNTCSSNELADPSYPKPVRVCDSCHTL [L44D], for which the abundance fitness amounted to 0.138 ± 0.068.

Turning to WLKDDEATHCRQCEKEFSISRRKHHCRNCGHIFCNTCSSNELAWPSYPKPVRVCDSCHTL [L44W], the abundance fitness was -0.375 ± 0.05.

Take WLKDDEATHCRQCEKEFSISRRKHHCRNCGHIFCNTCSSNELASPSYPKPVRVCDSCHTL [L44S]: the abundance fitness is -0.454 ± 0.053.

With WLKDDEATHCRQCEKEFSISRRKHHCRNCGHIFCNTCSSNELAAPSYPKPVRVCDSCHTL [L44A], the abundance fitness was -0.3 ± 0.071.

Turning to WLKDDEATHCRQCEKEFSISRRKHHCRNCGHIFCNTCSSNELALDSYPKPVRVCDSCHTL [P45D], the abundance fitness was -0.035 ± 0.36.

For the variant WLKDDEATHCRQCEKEFSISRRKHHCRNCGHIFCNTCSSNELALISYPKPVRVCDSCHTL [P45I], the abundance fitness was -0.162 ± 0.061.

Regarding WLKDDEATHCRQCEKEFSISRRKHHCRNCGHIFCNTCSSNELALKSYPKPVRVCDSCHTL [P45K], the abundance fitness was found to be 0.091 ± 0.05.

As to WLKDDEATHCRQCEKEFSISRRKHHCRNCGHIFCNTCSSNELALGSYPKPVRVCDSCHTL [P45G], the abundance fitness is -0.204 ± 0.051.

WLKDDEATHCRQCEKEFSISRRKHHCRNCGHIFCNTCSSNELALESYPKPVRVCDSCHTL [P45E]: the abundance fitness is -0.081 ± 0.074.

As to WLKDDEATHCRQCEKEFSISRRKHHCRNCGHIFCNTCSSNELALCSYPKPVRVCDSCHTL [P45C], the abundance fitness was -0.325 ± 0.085.

For the variant WLKDDEATHCRQCEKEFSISRRKHHCRNCGHIFCNTCSSNELALASYPKPVRVCDSCHTL [P45A], the abundance fitness is -0.277 ± 0.1.

For the variant WLKDDEATHCRQCEKEFSISRRKHHCRNCGHIFCNTCSSNELALHSYPKPVRVCDSCHTL [P45H], the abundance fitness is -0.022 ± 0.063.

With WLKDDEATHCRQCEKEFSISRRKHHCRNCGHIFCNTCSSNELALLSYPKPVRVCDSCHTL [P45L], the abundance fitness was -0.19 ± 0.042.

Regarding WLKDDEATHCRQCEKEFSISRRKHHCRNCGHIFCNTCSSYELALPSYPKPVRVCDSCHTL [N40Y], the abundance fitness was -0.906 ± 0.15.

As to WLKDDEATHCRQCEKEFSISRRKHHCRNCGHIFCNTCSSPELALPSYPKPVRVCDSCHTL [N40P], the abundance fitness is -0.387 ± 0.059.

On to WLKDDEATHCRQCEKEFSISRRKHHCRNCGHIFCNTCSSKELALPSYPKPVRVCDSCHTL [N40K], for which the abundance fitness came to 0.078 ± 0.056.

For WLKDDEATHCRQCEKEFSISRRKHHCRNCGHIFCNTCSSLELALPSYPKPVRVCDSCHTL [N40L], the abundance fitness is -0.424 ± 0.046.

On to WLKDDEATHCRQCEKEFSISRRKHHCRNCGHIFCNTCSSIELALPSYPKPVRVCDSCHTL [N40I], for which the abundance fitness was -0.223 ± 0.2.

With WLKDDEATHCRQCEKEFSISRRKHHCRNCGHIFCNTCSSWELALPSYPKPVRVCDSCHTL [N40W], the abundance fitness was -0.85 ± 0.078.

With WLKDDEATHCRQCEKEFSISRRKHHCRNCGHIFCNTCSSRELALPSYPKPVRVCDSCHTL [N40R], the abundance fitness came out at 0.153 ± 0.034.

In the case of WLKDDEATHCRQCEKEFSISRRKHHCRNCGHIFCNTCSSMELALPSYPKPVRVCDSCHTL [N40M], the abundance fitness was -0.021 ± 0.047.

Take WLKDDEATHCRQCEKEFSISRRKHHCRNCGHIFCNTCSSHELALPSYPKPVRVCDSCHTL [N40H]: the abundance fitness is -0.067 ± 0.1.

Regarding WLKDDEATHCRQCEKEFSISRRKHHCRNCGHIFCNTCSSQELALPSYPKPVRVCDSCHTL [N40Q], the abundance fitness was -0.001 ± 0.053.

In the case of WLKDDEATHCRQCEKEFSISRRKHHCRNCGHIFCNTCSSTELALPSYPKPVRVCDSCHTL [N40T], the abundance fitness is -0.08 ± 0.046.

For the variant WLKDDEATHCRQCEKEFSISRRKHHCRNCGHIFCNTCSSSELALPSYPKPVRVCDSCHTL [N40S], the abundance fitness is -0.004 ± 0.035.

As for WLKDDEATHCRQCEKEFSISRRKHHCRNCGHIFCNTCSSNDLALPSYPKPVRVCDSCHTL [E41D], the abundance fitness is -0.173 ± 0.06.

For WLKDDEATHCRQCEKEFSISRRKHHCRNCGHIFCNTCSSNQLALPSYPKPVRVCDSCHTL [E41Q], the abundance fitness was -0.056 ± 0.06.

Turning to WLKDDEATHCRQCEKEFSISRRKHHCRNCGHIFCNTCSSNPLALPSYPKPVRVCDSCHTL [E41P], the abundance fitness is -0.418 ± 0.06.

Take WLKDDEATHCRQCEKEFSISRRKHHCRNCGHIFCNTCSSNRLALPSYPKPVRVCDSCHTL [E41R]: the abundance fitness is -0.151 ± 0.042.

Consider WLKDDEATHCRQCEKEFSISRRKHHCRNCGHIFCNTCSSNILALPSYPKPVRVCDSCHTL [E41I], for which the abundance fitness is -0.335 ± 0.064.
